Data published in publication doi:10.1101/515924 (bioRxiv, 2019).

Target: His×6-Okp1 (budding yeast, UniProt P53298 1-406)
Assay: pull-down

Chain of His×6-Okp1 (P53298 whole entry): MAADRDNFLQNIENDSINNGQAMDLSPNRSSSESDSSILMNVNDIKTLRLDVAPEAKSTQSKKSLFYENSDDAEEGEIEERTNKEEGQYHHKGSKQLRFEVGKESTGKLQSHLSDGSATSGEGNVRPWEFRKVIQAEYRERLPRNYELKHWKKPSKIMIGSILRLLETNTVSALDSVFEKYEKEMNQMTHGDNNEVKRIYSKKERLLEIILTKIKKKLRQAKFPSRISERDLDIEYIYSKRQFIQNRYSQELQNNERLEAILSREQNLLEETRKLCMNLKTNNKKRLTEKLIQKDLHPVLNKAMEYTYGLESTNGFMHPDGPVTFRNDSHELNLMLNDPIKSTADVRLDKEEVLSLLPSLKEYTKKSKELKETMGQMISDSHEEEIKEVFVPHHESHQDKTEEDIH

B1: GST-Sli15 (1-401) (domain or fragment)
chain: MDWAIKAARKKTQRKPGSTRSIIETLDDLNNLTTDAHSEINQRLYESSEWLRNNVYMNTLKYEDKKMEESLISPENTHNKMDVEFPKMKGEYELSNSQNDAAKDVTKTPRNGLHNDKSITPKSLRRKEVTEGMNRFSIHDTNKSPVEPLNSVKVDANESEKSSPWSPYKVEKVLRESSKTSESPINTKRFDNQTWAAKEEMENEPILQALKKAESVKVKPPPNSGIARSQRRSNMFVPLPNKDPLIIQHIPPTKSSGSIPKVRTVKESPIAFKKKSTINSPAIRAVENSDTAGSTKASSVFDRLSSIPTKSFENKISRGNVGHKYSSSSIDLTGSPMKKVSQKFKSINSTDTDMQEALRDIFSVKNKITKNNSPKGKNSRKSSIPRFDKTSLKLTTHKKLA
  binding result: binds
